Holding throughout (test): cell_activity
Data set [1] relates to T1, phiC31 integrase (Streptomyces phage phiC31?).
T1 sequence: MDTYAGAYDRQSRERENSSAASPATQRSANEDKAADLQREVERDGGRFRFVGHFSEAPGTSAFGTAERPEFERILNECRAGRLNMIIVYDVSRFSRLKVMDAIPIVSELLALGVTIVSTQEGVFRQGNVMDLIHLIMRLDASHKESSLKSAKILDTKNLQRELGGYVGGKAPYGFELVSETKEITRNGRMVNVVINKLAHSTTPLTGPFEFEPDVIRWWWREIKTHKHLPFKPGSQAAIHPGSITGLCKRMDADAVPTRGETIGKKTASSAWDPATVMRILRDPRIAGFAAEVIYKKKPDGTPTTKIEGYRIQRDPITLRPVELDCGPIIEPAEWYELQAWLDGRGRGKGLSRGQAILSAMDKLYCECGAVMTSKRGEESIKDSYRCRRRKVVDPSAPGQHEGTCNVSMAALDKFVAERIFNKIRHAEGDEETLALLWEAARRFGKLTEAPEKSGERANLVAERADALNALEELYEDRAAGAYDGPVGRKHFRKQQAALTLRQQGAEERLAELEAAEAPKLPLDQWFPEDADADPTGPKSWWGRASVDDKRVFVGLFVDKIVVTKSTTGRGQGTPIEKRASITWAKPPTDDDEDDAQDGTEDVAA
The following applies: positive control; EGFP+ 293T cells at day 20.

Data set [2] has as its system T2, Cyin15 (metagenome (uncultured organism)).
T2 sequence: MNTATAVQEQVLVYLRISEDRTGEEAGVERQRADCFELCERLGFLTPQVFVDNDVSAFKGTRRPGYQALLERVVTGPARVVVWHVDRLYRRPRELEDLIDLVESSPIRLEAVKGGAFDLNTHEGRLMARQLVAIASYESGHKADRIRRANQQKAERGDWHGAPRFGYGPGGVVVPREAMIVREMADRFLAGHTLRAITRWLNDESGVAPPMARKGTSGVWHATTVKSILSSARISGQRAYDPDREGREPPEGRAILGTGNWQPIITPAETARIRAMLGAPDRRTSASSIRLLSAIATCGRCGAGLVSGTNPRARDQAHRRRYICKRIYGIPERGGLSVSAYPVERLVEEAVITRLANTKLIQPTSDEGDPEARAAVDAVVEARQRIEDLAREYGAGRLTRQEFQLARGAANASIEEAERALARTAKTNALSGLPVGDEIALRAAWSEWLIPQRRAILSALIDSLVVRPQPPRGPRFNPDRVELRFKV
The conditions noted are these: EGFP+ 293T cells at day 20.

Data set [3] relates to T3, Cyin14 (metagenome (uncultured organism)).
T3 sequence: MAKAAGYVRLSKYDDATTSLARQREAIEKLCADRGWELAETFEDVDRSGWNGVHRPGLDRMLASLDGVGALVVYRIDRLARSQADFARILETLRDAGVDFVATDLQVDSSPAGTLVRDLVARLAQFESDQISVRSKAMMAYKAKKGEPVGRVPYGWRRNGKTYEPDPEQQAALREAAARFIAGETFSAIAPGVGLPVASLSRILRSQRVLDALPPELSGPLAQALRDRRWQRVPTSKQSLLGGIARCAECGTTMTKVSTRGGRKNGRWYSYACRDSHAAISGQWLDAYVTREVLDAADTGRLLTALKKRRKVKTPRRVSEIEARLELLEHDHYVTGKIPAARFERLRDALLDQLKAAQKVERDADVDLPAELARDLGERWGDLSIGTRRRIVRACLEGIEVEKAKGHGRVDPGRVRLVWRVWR

Data set [4] relates to T4, Cyin11 (metagenome (uncultured organism)).
T4 sequence: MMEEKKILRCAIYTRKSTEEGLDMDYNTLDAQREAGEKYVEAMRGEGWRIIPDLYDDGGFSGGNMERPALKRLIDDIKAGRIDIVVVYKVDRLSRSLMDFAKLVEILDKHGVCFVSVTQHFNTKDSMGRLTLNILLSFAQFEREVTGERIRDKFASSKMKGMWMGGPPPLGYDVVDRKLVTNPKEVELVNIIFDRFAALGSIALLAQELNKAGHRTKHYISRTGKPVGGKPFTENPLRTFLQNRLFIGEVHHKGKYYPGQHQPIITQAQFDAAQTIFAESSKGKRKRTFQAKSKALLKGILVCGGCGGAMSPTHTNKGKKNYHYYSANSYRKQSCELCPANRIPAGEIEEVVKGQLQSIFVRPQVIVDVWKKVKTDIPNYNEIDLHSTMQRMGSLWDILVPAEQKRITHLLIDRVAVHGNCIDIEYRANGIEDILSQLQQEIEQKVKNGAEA
The following applies: EGFP+ 293T cells at day 20.

Data set [5] relates to T5, Cyin16 (metagenome (uncultured organism)).
T5 sequence: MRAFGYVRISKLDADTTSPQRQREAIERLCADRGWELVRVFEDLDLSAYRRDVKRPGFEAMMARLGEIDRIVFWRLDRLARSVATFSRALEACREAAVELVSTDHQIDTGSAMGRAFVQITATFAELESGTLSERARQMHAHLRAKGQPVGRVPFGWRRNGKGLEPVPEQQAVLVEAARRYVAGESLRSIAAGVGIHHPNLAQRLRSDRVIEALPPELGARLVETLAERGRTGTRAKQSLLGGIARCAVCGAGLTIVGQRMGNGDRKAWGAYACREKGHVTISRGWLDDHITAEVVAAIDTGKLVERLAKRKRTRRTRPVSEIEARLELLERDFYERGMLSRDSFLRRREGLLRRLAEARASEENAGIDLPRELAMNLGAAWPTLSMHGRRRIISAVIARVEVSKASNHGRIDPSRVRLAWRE
The following applies: EGFP+ 293T cells at day 20.

The subject of data set [6] is T6, Cyin12 (metagenome (uncultured organism)).
T6 sequence: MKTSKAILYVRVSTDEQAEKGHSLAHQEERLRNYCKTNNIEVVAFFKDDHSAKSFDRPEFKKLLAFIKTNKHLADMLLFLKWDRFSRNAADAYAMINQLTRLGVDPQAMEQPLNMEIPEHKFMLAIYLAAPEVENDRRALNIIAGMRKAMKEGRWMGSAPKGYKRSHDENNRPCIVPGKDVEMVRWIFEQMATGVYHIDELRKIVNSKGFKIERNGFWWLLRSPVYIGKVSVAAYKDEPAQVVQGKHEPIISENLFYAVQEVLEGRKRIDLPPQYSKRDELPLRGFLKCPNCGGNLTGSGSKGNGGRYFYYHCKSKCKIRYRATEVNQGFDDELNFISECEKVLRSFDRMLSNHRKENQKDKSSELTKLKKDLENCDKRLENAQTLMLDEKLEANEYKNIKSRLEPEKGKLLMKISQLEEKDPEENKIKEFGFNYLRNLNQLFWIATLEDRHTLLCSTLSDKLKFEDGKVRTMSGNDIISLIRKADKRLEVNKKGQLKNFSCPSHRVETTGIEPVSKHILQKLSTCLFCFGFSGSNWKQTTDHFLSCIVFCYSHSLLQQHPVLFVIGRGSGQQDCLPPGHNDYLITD
The following applies: EGFP+ 293T cells at day 20.

Sequence “GTCGACGATGTAGGTCACGGTCTCGAAGCCGCGGTGCGGGTGCCAGGGCGTGCCCTTGGGCTCCCCGGGCGCGTACTCCACCTCACCCATCTGGTCCATCATGATGAACGGGTCGAGGTGGCGGTAGTTGATCCCGGCGAACGCGCGGCGCACCGGGAAGCCCTCGCCCTCGAAACCGCTGGGCGCGGTGGTCACGGTGAGCACGGGACGTGCGACGGCGTCGGCGGGTGCGGATACGCGGGGCAGCGTCAGCGGGTTCTCGACGGTCACGGCGGGCATGTCGAC (double strand) [phiC31 attB]” gave an activity in data set [1] of 8.87%.
In the case of “GGAATCAGCCGGGGCTTCTCGGCCGTCAACATCCGCAAGTTCGTGGTGCGAGCATCGCGCCTGTCGGAGCTGGTCGATCTGCAGAGCCTCACGCCGTCCGCGGCCCTGTTCCTCGAGGCATCCATCCGGGACGACGGCCCCGGAGAGCGATCCCGCTGTGAGCAGGCCGCCCTCGGCAATGTCGAGCGCCGCATGCTGGCCGACCACCTGTTCGATCTCGCTTGCGAGCACCGGCTTCACCGCTGGGTCCGCGCT (double strand) [15-B2]”, the activity in data set [2] was found to be 1.12%.
For “GGGTATTCGGCCTCTCTCCCCGTCACGTCCGCGACGTCTTCGTCGCCGGGGAGCTGGTGGTGGAAGACCGGCGGCCAACGCGGGTCCAGCCGGAGGACATCGTCTGGGACGCCGCCGCGGAGGCCGCGCCGACCGCGGCTGGGAGCTCGCCGAGACCTTCGAGGACGTGGACCGCTCCGGGTGGAACGGGGTTCACCGGCCCGGGCTCGACCGGATGCTGGCCTCACTCGACGGCGTTGGCGCGCTGGTCGT (double strand) [14-P1]”, in data set [3] (EGFP+ 293T cells at day 20, donor plasmid integration into genome, significantly above no-integrase control), the activity was determined as 10.1%.
“ATCCAATGTGCAAGGCCATTTAGATGTCGCTTTGGCAAACACACTCGGCCGTTTGTGTCATGAATTATAATATCAGACATGCTACTGAAAAAGATTTATCTGCACTTTGCGATATTGAACATGAATCTTTATTTCCCAAACCAAAAAATGCGTTACCGTTCCAGCGCGTGCCGGTAATTGCAAATGCGACACCAGATAGGCTTTTATATTTCAGCCCCTGATATTCATAGCCGTCAGCCAGCACATACACAT (double strand) [11-B1]” showed an activity in data set [4] of 1.78%.
Turning to “ACGTATACTGGCGTACACTGATCAAGGAGGGGCCATGGCCAAGGCAGCCGGGTACGTCAGGCTCAGCAAGTACGACGACGCCACCACTAGTCTCGCCCGCCAGCGTGAGGCCATCGAAAAGCTGTGCCCGGCTCTGGGATCGCCTCACCGAGATCGAGCCGCACGCGTTCGAACCGGTGGAGACGAGGTGAAGCCGAACAGGGTCGCGCTCTATCTCCAAGACAAGCACCCCCTCCGCGAGGGGATGAAGTA (double strand) [14-B1]”, the activity in data set [3] (EGFP+ 293T cells at day 20) worked out at 1.38%.
Consider “TGCCGGCCAGTGCCGTCTCGGAGGTGGTGAACCAGGTTTCGGATGAAGTCGTCGGCCTCGGTCCCATCGAGCGATTGCTCAAGGACCCGGAGATCAGCGAGGTGATGGTGAACGGGGCCGACGACGTGGTCGTCGACCAGGAGGACCTTCACGAGGCCGCCTCTCGCAACGGGAACCGGGCCACGACCCGCGTGCCCTTCCCCGGCCGCGGATAGACGTAGAGCCTGCCCCCAGCCTCCCGCACGCGGCGGCG (double strand) [16-B2]”, for which the activity in data set [5] (significantly above no-integrase control) worked out at 4.23%.
Turning to “AGCGCCACTTCGTGTGGGGCGTGTTGGAGGATCTCCAAAGCCTCTTCGGCTGAGCCCGCCTCCGTGACGTCGGCGCCCTCCACGCAGTTCTGCAGGACCTGGATGAGGCCCTTTCGAACCAGCGTGTGTACGTGGAGCGGAAGGGGCCGATTATTGACTGAACCGTAGACCAGCCCTATGCTGCTATGGCCGACCAGAGGAGGGGGAGCCATGCGCGCCTTCGGCTACGTCCGGATCTCCAAGCTCGACGCCG (double strand) [16-P2]”, the activity in data set [5] is 2.33%.
Turning to “TCGATTCGGTTCGCCGCGCCGCTACCGGATCGCGCCGAAGAGATGACTGATCTCGAGGCTCCGGCCCGAAGGCCTCCTCAACGGCTTCGAGGATCGATTCGGCGCGCACGGGTGCCTCTCTCCGCGCGCCAGCGCGAGGCAATCGAGCGCCTCTGTGCTGACCGCGGGTGGGAGCTCGTTCGAGTCTTCGAGGATCTCGACCTCTCGGCCTACCGCCGCGACGTGAAGCGGCCGGGCTTCGAGGCCATGATGG (double strand) [16-P1]”, in data set [5], the activity worked out at 1.69%.
Regarding “TTGTCTTCCTCTGCAGTCAATTGTTTTGGATCATCTTTTTTGGGAACAACAAGATTACTTTGAACATTATCTCTATTTACACCGGTTGAAACCTGGTCCTTCTTATTAAGAACTTCTGTATTTGTCAAAGCAATTCTTTATGTCAGAGTGAGTACAGACGAACAGGCTGAAAAAGGTCACAGTCTGGCTCATCAGGAAGAACGACTTCGTAATTATTGCAAAACAAATAATATCGAGGTCGTTGCTTTTTTTA (double strand) [12-P1]”, the activity in data set [6] came out at 1.53%.
